Measurements from the supplement of paper PMC9170038.

Columns and labels:
MS2 coat protein [1] = assay: apparent KD of MS2 coat protein; designed switch direction (-1 OFF switch, 1 ON switch): 1; higher = weaker reporter binding
Procedure, shortened: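 Normalised cluster fluorescence was curve-fitted, and each design's median over clusters is its apparent KD. Before this, SNAP-549-labelled MS2 coat protein was titrated from 0.7 or 1.5 nM, doubling to 3 µM, over RNA switches transcribed on Illumina chips by stalled E. coli RNA polymerase. Titrations had no input, 200 uM small-molecule ligand, or an oligonucleotide input, and steps lasted 0.8–1.5 h (lowest) to 10–20 min (highest).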

MS2 coat protein [2] = assay: apparent KD of MS2 coat protein; higher = weaker reporter binding; conditions: Eterna round: R107
Procedure, shortened: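 Apparent KD stands for the median, per design, of fits to normalised cluster binding curves. The curves came from titrating on-chip-transcribed RNA switches on Illumina sequencing clusters with SNAP-549-labelled MS2 coat protein, twofold from 0.7 or 1.5 nM to 3 µM. Buffer was 100 mM Tris-HCl pH 7.5, 80 mM KCl, 4 mM MgCl2, without or with constant ligand.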

[3] = input ligand: microRNA oligo, concentration not stated
[4] = Eterna round: R95, input ligand: FMN 200 uM
[5] = Eterna round: R95, input ligand: microRNA oligo, concentration not stated
[6] = Eterna round: R95, input ligand: none
[7] = input ligand: theophylline 20 uM
[8] = input ligand: theophylline 2 mM
[9] = input ligand: tryptophan 2.4 mM

| Sequence | apparent KD of MS2 coat protein (MS2 coat protein [2]; input ligand: arginine 13.2 mM) [nM] | apparent KD of MS2 coat protein (MS2 coat protein [2]; input ligand: none) [nM] | apparent KD of MS2 coat protein (MS2 coat protein [2]; [7]) [nM] | apparent KD of MS2 coat protein (MS2 coat protein [2]; [8]) [nM] | apparent KD of MS2 coat protein (MS2 coat protein [2]; [9]) [nM] | other results |
| --- | --- | --- | --- | --- | --- | --- |
| GAGAGAGGGUGAGGAUAUGGAGUAAUAAUGAUACCAGAAGGCACAGACAUGAGGAUCACCCAUGUGGGAAUAAUCCAGAGAGAG [Parity 7 - Jieux - Same State NG 1] (Eterna round: R96, puzzle: Same State NG 1) |  |  |  |  |  | apparent KD of MS2 coat protein (MS2 coat protein [1]; input ligand: FMN 200 uM): 506 nM; apparent KD of MS2 coat protein (MS2 coat protein [1]; [3]): 177 nM; apparent KD of MS2 coat protein (MS2 coat protein [1]; input ligand: none): 264 nM |
| AUUAUACAUGAGGAUCACCCAUGUAAUUAAUUAAUUAAGAUCUAGGAUAUCAGCUCGAUUAGAGCUGAGAAGGAGAUCACAUGU [SSNG3/20-C2] (Eterna round: R96, puzzle: Same State NG 3) |  |  |  |  |  | apparent KD of MS2 coat protein (MS2 coat protein [1]; [3]): 21.2 nM |
| AGUCCAGCCUGAGCUGGACAGAAGCAUGUACAUGAGGAUCACCCAUGUCAUGUACAAGCUUUUUGCUCGUCUUAAUA [Zipper 49 - 3] (puzzle: Sensor for hsa-mir-208a) |  |  |  |  |  | apparent KD of MS2 coat protein (MS2 coat protein [1]; [4]): 459 nM; apparent KD of MS2 coat protein (MS2 coat protein [1]; [5]): 16.2 nM; apparent KD of MS2 coat protein (MS2 coat protein [1]; [6]): 641 nM |
| GAGUGAUGGGUUAGUAACUGCUGGGAAGGACAUGAGGAUCACCCAUGUGAGUAGCGAGCUUGUGCUCGUCUUAUUAG [JR_SHM208A_Sub023] (puzzle: Sensor for hsa-mir-208a) |  |  |  |  |  | apparent KD of MS2 coat protein (MS2 coat protein [1]; [4]): 207 nM; apparent KD of MS2 coat protein (MS2 coat protein [1]; [5]): 114 nM; apparent KD of MS2 coat protein (MS2 coat protein [1]; [6]): 379 nM |
| AUAUAACAUGAGGAUCACCCAUGUCUCUAAAGUCGAGGAUAUGGGCAAAUAAUAUAAGAACCAGAAGGCGAAUUAU [SS1 Teenbexe 4] (puzzle: Same State 1) |  |  |  |  |  | apparent KD of MS2 coat protein (MS2 coat protein [1]; [4]): 143 nM; apparent KD of MS2 coat protein (MS2 coat protein [1]; [5]): 34.1 nM; apparent KD of MS2 coat protein (MS2 coat protein [1]; [6]): 79.3 nM |
| AGCAUACAUGAGGAUCACCCAUGUCAACUUAGUCGAGGAUAUGGGCAGCCGUGAGGCGAACCAGAAGGCGAAUUGA [Mat - Same State 1 - Mod of JL - D2] (puzzle: Same State 1) |  |  |  |  |  | apparent KD of MS2 coat protein (MS2 coat protein [1]; [4]): 18.5 nM; apparent KD of MS2 coat protein (MS2 coat protein [1]; [5]): 28.1 nM; apparent KD of MS2 coat protein (MS2 coat protein [1]; [6]): 26.2 nM |
| GUACAGAUCACAGGAUAUCACGUCGAAUAGACGUGAGAAGGGUGAUCACACAUGAAUAUUAAUACAUGAGGAUCACCCAUGUAC [SSNG1/16-A1] (Eterna round: R96, puzzle: Same State NG 1) |  |  |  |  |  | apparent KD of MS2 coat protein (MS2 coat protein [1]; input ligand: FMN 200 uM): 71 nM; apparent KD of MS2 coat protein (MS2 coat protein [1]; [3]): 14.1 nM; apparent KD of MS2 coat protein (MS2 coat protein [1]; input ligand: none): 20.4 nM |
| UACUUCAUGUAAGGAUAUGCAGCCGUUUCGGCUGCAGAAGGUACUAUAAUACAUGAGGAUCACCCAUGUCUCUCGCAUUGCGAG [JL SSNG1 1.50] (Eterna round: R96, puzzle: Same State NG 1) |  |  |  |  |  | apparent KD of MS2 coat protein (MS2 coat protein [1]; input ligand: FMN 200 uM): 53.6 nM; apparent KD of MS2 coat protein (MS2 coat protein [1]; [3]): 86.2 nM; apparent KD of MS2 coat protein (MS2 coat protein [1]; input ligand: none): 158 nM |
| AAUAAUAACAUGGGUGAAGUCGUACCAUAACGAGGACCGGUACGGCCGCCACUCGAACAUGAGGAUCACCCAUGUAGGUACGACA [M'-T'-T-MS2-T'' - Design 9] | 37.6 | 86.6 | 110 | 85.2 | 43.7 |  |
| AGUACUCGAACGGAUACCAGCCGGACAUGAGGAUCACCCAUGUCCUACCAUGGUUCGGUUGGCCCUUGGCAGCCGUUCGUGUACA [Omei Theo B SS A v3] | 128 |  | 204 |  | 203 |  |
| UGUCAGCGAAAGUUGACAUGUCUUGCUGGUCGAGGACCGGUACGGCCGCCACUCGAUCUCUCGCACAUGAGGAUCACCCAUGUUG [SS Tryp A #23] | 13.9 |  | 14.4 | 13.9 |  |  |
| AGAUGUAGCGGAAGGAGCGACAAGAGGAUCACCCUUGUCUCCCGUUGUGGGAGUUCCUUAGGUCAGGUAGGUCGCCGUUACGUCA [Omei Arg B SS B v4] | 22.7 | 22.9 | 38.4 | 28.6 | 25 |  |
| CUGGACAUGAGGAUCACCCAUGUAAAUCCUCGAGGACCGGUACGGCCGCCACUCGAACGAGUGGCGCGCGCGCGCGCGCGCGCGC [aIa] | 23.5 | 54.3 | 142 | 89.5 | 62.9 |  |
| CCCUGGGUGGGAAGGAGCGCAUAGUGAACAUGAGGAUCACCCAUGUGUAGACGUGAGUCACUGCAGGUAGGUCGCCCACCCAGGG [SS-ArgB23] | 19.5 | 27.5 | 47.3 | 46.5 | 29.5 |  |
| UGUGUGUGACCAGGAAAUGGUCACACACAGCGAGGACCGGUACGGCCGCCACUCGGCCGUACAUGAGGAUCACCCAUGUCGGGUA [#1 Same State - Tryptophan A Attempt #9 (HarryS)] | 99.6 |  | 961 | 1290 |  |  |
| GGUUACUCUACGGCCGCCACUGAUUAUUUAUAGUCCUGUACAUAAACAUGAGGAUCACCCAUGUACAGGACCGGGUAGUGUAACC [Tryptophan B 12] | 28.5 |  | 53.9 | 40.6 |  |  |
| CAUGCCAGGGCGGCCGCCACUGUGGCUACGGUACAUGAGGAUCACCCAUGUUUGUGGUUGAUCUACAGGACCGGGCCCUAGCACG [Anananenes] | 30.6 |  | 597 | 528 |  |  |

| Sequence | apparent KD of MS2 coat protein (MS2 coat protein [2]; input ligand: arginine 13.2 mM) [nM] | apparent KD of MS2 coat protein (MS2 coat protein [2]; input ligand: none) [nM] | apparent KD of MS2 coat protein (MS2 coat protein [2]; [7]) [nM] | apparent KD of MS2 coat protein (MS2 coat protein [2]; [8]) [nM] | apparent KD of MS2 coat protein (MS2 coat protein [2]; [9]) [nM] | other results |
| --- | --- | --- | --- | --- | --- | --- |
| ACCUGUACGAAAAGUGCAGGACAGGAAAAUCGAGGACCGGUACGGCCGCCACUCGUAUAAACAAGUGGAUCACCCUUGUAACCUG [TrypAS 1 #AlternativeMS2 #Zipper] | 458 | 664 | 1060 | 1760 | 1610 |  |
| AUACAUGAGGAUCACCCAUGUCCUCGUGAUCGAGGACCGGUACGGCCGCCACUCGGUCCUCGCGAGGAGGAGUCAAAGACUCCAA [Omei Trp A SS A v4] | 38.5 | 82.9 | 111 | 113 | 53.8 |  |
| AAACGCCACGGAAGGAGCGACAUGAGGAUCACCCAUGUAGAAGUGGCGGAUGCACCCUCCUGUCAGGUAGGUCGCCGUGCGCCAA [XArg-B24] | 17.1 | 21.2 | 39 | 29.7 | 22.4 |  |
| AUUAUCAUGGUCAUAUAUAUAUCUUCAGAUACCAGACUAUAUUAAGUCCCUUGGCAGCUGUUACAUGAGGAUCACCCAUGUUAUA [JR_ExcTheophyA_Sub014] | 53.9 |  | 76.1 |  | 102 |  |
| UUUACAUGAGGAUCACCCAUGUGCCAUGAUACCAGACAUGAAAAUGUCCCUUGGCAGCAUGAGUGAUGCAUCCGAAAGGAUGUUU [Ivanovice] | 97.2 |  | 197 |  | 52.4 |  |
| CACAGUGCGAAAUUGAAUUCGCACGAUCCUCGAGGACCGGUACGGCCGCCACUCGCGCGGGUCGUACAUGAGGAUCACCCAUGUC [Zatiin] | 41.3 |  | 419 | 477 |  |  |
| CCACACAUGAGGAUCACCCAUGUAAUUGAUACCAGAUUUAAAUGAGUCCCUUGGCAGCAGUGAGCUAGAGUUGUCGUAUAUAUGG [Theo A SS t2] | 14.2 |  | 23.8 |  | 16.1 |  |
| UUGGGUUUGUGAAGGAGCGGGAAAUAUAUAUAUAUAAUCCUAACAUGAGGAUCACCCAUGUCCCAGGUAGGUCGCGCGGGUUUGG [12.N] | 46.4 | 60.2 | 63.5 | 65.5 | 51.6 |  |
| UAAACUACACAUGAGGAUCACCCAUGUGGCCGAGGACCGGUACGGCCGCCACUCGUGUGUUAAUAAAAGAACUGCAAGAUUCUUU [Issoraor] | 78.3 |  | 220 | 396 |  |  |
| AACAUGAGCACGGCCGCCACUCCAUGAACAUGAGGAUCACCCAUACACAUGAGGAUCACCCAUGUGAGGACCGGGUGUCCAUGUG [Exclusion Tryptophan B 2] | 12.6 |  | 18.7 | 16.5 |  |  |
| ACGUCAUGGAGAACGUGACGACUUAUCGAUACCAGCGAUUGAGAGCGCCCUUGGCAGCGAACAUGAGGAUCACCCAUGUCAAGGG [Same State - Theophylline A] | 29.1 |  | 36.5 |  | 29.4 |  |
| AAAAUAAAUAAAACACGUAACAUGAAGGAUACCAGACAGGAAACUGUCCCUUGGCAGCCUCUACAUGAGGAUCACCCAUGUCGUG [Mat - Same State Theophlline A - Mod of Eli - D17] | 112 |  | 128 |  | 266 |  |
| AAUAACGUGAGGAUCACCCACGUAAAAGAUACCAGAGUGAUGAUCCUCCCUUGGCAGCUUAACGCUGAUUGAUUACAAUCAGCGA | 49.5 | 58.7 | 123 | 213 | 49.6 |  |
| GGGUACAUCGCGGCCGCCACUCAUGUAAAUUCAUGAGGAUCACCCAUGACGAUGGAGACAUCGGAGAGGACCGGGUGAUGUACCG | 26.5 | 16.8 | 23 | 20.8 | 16.8 |  |
| GGGAUAUCCCGAAGGAGCGCGAGAUGCUGUGCUGCAUUCCUCACAUGAGGAUCACCCAUGUCGCAGGUAGGUCGCGGGAUAUCCC [#16 Exclusion - Arginine B] | 151 | 450 | 452 | 553 | 485 |  |
| AGGACCAGGAUCCUCAUGUAACUGGUCCAACGAGGACCGGUACGGCCGCCACUCGAAUAAACAUGAGGAUCACCCAUGUAAUAAU [T''-M-T'-T-MS2] | 36.9 | 268 | 169 | 313 | 426 |  |
| UUAUGAUGUUCCGAUACCAGCCAUGUAGUUCUAACUUAACAUGAGGAUCACCCAUGUACCGGCCCUUGGCAGCGGAUGUGGAUUA [#22Same State - Theophylline B] | 27 | 23.4 | 29.3 | 14.8 | 23.7 |  |
